Data taken from article PMC4145799.

How the values were obtained:
LdcI (Escherichia coli) = LdcI (Escherichia coli) (UniProt P0A9H3); conditions: cited from earlier work
[1] = target: inducible lysine decarboxylase LdcI (Escherichia coli) (UniProt P0A9H3); assay: cryo-EM structure; LdcI-LARA complex, 7.5 Å; 7.3 µM LdcI with 73 µM LARA (1:10), 15 min at room temperature, 50 mM Mes pH 6.5, 100 mM NaCl, 0.2 mM PLP, 1 mM DTT, 0.01% glutaraldehyde; D5 symmetry imposed
Sequence of inducible lysine decarboxylase LdcI (Escherichia coli) (P0A9H3 whole entry): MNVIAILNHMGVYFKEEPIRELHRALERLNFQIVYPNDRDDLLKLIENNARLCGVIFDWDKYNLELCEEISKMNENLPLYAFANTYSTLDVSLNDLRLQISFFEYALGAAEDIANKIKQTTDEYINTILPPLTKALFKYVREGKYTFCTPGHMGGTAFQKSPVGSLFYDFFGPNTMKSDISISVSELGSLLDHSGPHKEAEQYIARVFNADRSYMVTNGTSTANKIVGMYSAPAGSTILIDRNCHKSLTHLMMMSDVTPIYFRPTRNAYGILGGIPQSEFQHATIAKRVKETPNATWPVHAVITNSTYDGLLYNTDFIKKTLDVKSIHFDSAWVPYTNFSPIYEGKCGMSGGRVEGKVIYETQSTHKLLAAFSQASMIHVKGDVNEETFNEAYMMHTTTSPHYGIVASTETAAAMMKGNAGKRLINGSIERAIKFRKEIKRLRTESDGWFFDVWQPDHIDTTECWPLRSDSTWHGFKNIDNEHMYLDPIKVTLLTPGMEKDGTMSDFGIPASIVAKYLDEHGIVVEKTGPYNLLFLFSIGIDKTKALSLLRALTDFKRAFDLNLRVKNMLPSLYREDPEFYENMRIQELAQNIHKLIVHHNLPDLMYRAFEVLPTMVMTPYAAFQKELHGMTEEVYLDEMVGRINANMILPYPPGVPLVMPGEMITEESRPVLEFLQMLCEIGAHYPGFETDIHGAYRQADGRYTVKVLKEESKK

Sequence of LdcI (Escherichia coli) (P0A9H3 whole entry): as above
Sequence of RavA (P31473 whole entry): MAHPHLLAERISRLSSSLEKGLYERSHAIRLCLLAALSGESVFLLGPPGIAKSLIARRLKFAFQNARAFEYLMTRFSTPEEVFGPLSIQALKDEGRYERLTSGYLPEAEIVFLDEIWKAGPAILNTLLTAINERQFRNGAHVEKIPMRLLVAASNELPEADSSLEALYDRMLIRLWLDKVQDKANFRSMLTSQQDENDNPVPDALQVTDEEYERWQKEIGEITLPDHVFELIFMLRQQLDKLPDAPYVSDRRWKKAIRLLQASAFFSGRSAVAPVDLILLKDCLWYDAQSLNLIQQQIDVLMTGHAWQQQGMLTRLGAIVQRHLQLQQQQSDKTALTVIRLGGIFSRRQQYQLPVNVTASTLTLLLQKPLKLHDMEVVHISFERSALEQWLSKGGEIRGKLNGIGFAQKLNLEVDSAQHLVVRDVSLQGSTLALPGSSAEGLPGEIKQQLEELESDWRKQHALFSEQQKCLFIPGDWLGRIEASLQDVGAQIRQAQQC

Row | stoichiometry N (LARA domain per LdcI protomer) [1] | Substance | Kd (LdcI (Escherichia coli)) [nM]
1 |  | RavA (from UniProt P31473) | 20
2 | 1 | LARA domain of RavA (LdcI associating domain of RavA) (from UniProt P31473 1-498) (domain or fragment) | 
